Laboratory results: article PMC9482650, “Quantitative fragmentomics allow affinity mapping of interactomes” (Nature Communications, 2022)
Numbering of substitutions follows the chain as printed.

Key:
Experiment in all cases: holdup assay
Design in all cases: key: below the threshold = too weak to quantify, mostly under pKd 3.1 to 4
APBA2_2, Q99767 = molecular target: T1, APBA2_2, Q99767
T1 sequence (Q99767 654-744, limits assumed, looked up): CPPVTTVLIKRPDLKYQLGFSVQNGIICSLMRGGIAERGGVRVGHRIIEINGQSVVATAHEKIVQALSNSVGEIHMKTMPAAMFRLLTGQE

DLG2_3, Q15700 = molecular target: DLG2_3, Q15700
DLG4_2, P78352 = molecular target: DLG4_2, P78352
FRMPD1, Q5SYB0 = molecular target: T2, FRMPD1, Q5SYB0
T2 sequence (Q5SYB0 52-145, limits assumed, looked up): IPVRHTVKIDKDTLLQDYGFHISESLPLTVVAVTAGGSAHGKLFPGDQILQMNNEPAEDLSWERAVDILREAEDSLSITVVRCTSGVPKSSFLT

FRMPD3, Q5JV73 = molecular target: FRMPD3, Q5JV73
FRMPD4, Q14CM0 = molecular target: FRMPD4, Q14CM0
GRID2IP_1, A4D2P6 = molecular target: GRID2IP_1, A4D2P6
GRID2IP_2, A4D2P6 = molecular target: GRID2IP_2, A4D2P6
GRIP1_4, Q9Y3R0 = molecular target: T3, GRIP1_4, Q9Y3R0
T3 sequence (Q9Y3R0 467-571, limits assumed, looked up): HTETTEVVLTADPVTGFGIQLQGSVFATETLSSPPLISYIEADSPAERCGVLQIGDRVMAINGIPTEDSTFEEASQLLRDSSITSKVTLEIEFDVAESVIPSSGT

GRIP1_7, Q9Y3R0 = molecular target: T4, GRIP1_7, Q9Y3R0
T4 sequence (Q9Y3R0 999-1096, limits assumed, looked up): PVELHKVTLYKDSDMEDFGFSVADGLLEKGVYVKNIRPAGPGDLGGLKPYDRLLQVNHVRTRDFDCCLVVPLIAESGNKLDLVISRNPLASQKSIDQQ

IL16_1, Q14005 = molecular target: IL16_1, Q14005
Inadl_5, Q8NI35 = molecular target: Inadl_5, Q8NI35
LIN7A, O14910 = molecular target: T5, LIN7A, O14910
T5 sequence (O14910 103-200, limits assumed, looked up): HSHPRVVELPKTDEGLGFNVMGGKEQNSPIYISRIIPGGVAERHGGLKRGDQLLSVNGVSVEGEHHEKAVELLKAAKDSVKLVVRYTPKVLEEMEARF

LIN7B, Q9HAP6 = molecular target: T6, LIN7B, Q9HAP6
T6 sequence (Q9HAP6 88-185, limits assumed, looked up): T5 sequence (O14910 103-200, limits assumed, looked up) with S2A, V20I, I35V, E42D, H65Q, K77Q, D78G, K89R

LNX1_1, Q8TBB1 = molecular target: LNX1_1, Q8TBB1
LNX1_3, Q8TBB1 = molecular target: LNX1_3, Q8TBB1
MAGI2_3, Q86UL8 = molecular target: MAGI2_3, Q86UL8
MAGI2_4, Q86UL8 = molecular target: MAGI2_4, Q86UL8
MAGI2_6, Q86UL8 = molecular target: MAGI2_6, Q86UL8
MAST1, Q9Y2H9 = molecular target: MAST1, Q9Y2H9
PCLO, Q9Y6V0 = molecular target: T7, PCLO, Q9Y6V0
T7 sequence (Q9Y6V0 4491-4600, limits assumed, looked up): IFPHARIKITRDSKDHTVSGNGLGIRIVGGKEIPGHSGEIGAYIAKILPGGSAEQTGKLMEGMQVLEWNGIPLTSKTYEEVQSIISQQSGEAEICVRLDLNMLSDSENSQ

PDZD7_3, Q9H5P4 = molecular target: T8, PDZD7_3, Q9H5P4
T8 sequence (Q9H5P4 857-944, limits assumed, looked up): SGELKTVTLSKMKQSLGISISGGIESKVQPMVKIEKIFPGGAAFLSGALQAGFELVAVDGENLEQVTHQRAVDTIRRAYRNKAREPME

PDZRN4_1, Q6ZMN7 = molecular target: PDZRN4_1, Q6ZMN7
PTPN13_1, Q12923 = molecular target: T9, PTPN13_1, Q12923
T9 sequence (Q12923 1088-1188, limits assumed, looked up): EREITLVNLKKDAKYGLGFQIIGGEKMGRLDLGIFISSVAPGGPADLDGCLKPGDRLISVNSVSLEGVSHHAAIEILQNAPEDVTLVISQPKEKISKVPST

SCRIB_1, Q14160 = molecular target: SCRIB_1, Q14160
TIAM2, Q8IVF5 = molecular target: T10, TIAM2, Q8IVF5
T10 sequence (Q8IVF5 885-986, limits assumed, looked up): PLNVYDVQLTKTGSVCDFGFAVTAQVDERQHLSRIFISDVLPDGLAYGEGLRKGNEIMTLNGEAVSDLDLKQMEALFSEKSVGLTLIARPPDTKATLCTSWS

TJP1_2, Q07157 = molecular target: TJP1_2, Q07157
[1] = plain residues with an end cap or a label only (N-terminal biotin on a linker: ahx)
[2] = plain residues with an end cap or a label only (N-terminal biotin on a linker: ado-ado)

Sequence of LNX1_3, Q8TBB1 (Q8TBB1 500-596): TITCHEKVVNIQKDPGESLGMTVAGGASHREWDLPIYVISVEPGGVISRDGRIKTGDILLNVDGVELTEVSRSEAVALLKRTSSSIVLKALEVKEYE
Sequence of MAGI2_4, Q86UL8 (Q86UL8 772-865): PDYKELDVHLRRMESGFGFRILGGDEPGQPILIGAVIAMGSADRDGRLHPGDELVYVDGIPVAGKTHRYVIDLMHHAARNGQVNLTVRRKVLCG
Sequence of GRID2IP_2, A4D2P6 (A4D2P6 272-370): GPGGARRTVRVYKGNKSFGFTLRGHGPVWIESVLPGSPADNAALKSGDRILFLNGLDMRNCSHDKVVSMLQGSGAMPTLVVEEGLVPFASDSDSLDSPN
Sequence of FRMPD4, Q14CM0 (Q14CM0 67-160): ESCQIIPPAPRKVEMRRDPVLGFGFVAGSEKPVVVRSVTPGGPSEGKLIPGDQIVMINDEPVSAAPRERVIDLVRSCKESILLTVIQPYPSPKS
Sequence of DLG4_2, P78352 (P78352 155-259): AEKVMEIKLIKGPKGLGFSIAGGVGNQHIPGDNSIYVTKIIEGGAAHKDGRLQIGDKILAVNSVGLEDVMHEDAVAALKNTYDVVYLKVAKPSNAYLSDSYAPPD
Sequence of FRMPD3, Q5JV73 (Q5JV73 12-100): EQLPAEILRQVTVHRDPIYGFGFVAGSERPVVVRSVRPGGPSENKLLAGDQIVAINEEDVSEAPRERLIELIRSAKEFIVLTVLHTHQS
Sequence of LNX1_1, Q8TBB1 (Q8TBB1 261-371): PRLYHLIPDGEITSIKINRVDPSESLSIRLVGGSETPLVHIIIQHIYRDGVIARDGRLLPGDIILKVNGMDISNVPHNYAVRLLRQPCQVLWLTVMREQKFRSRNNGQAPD
Sequence of IL16_1, Q14005 (Q14005 210-306): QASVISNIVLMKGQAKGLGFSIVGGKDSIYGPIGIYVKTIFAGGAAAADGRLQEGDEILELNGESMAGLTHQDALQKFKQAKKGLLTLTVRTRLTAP
Sequence of SCRIB_1, Q14160 (Q14160 718-814): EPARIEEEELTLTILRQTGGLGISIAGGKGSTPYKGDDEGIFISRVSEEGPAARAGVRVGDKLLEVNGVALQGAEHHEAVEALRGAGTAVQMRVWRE
Sequence of MAGI2_3, Q86UL8 (Q86UL8 600-682): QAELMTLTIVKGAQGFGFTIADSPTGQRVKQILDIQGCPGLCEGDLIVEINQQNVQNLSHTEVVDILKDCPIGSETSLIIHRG
Sequence of TJP1_2, Q07157 (Q07157 181-274): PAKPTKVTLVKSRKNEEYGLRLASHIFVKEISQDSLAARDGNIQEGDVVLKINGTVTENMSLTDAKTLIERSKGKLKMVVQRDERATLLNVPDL
Sequence of MAST1, Q9Y2H9 (Q9Y2H9 962-1065): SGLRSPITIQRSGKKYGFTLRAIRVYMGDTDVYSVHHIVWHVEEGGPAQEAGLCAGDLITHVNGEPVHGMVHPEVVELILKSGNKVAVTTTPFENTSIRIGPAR
Sequence of PDZRN4_1, Q6ZMN7 (Q6ZMN7 213-318): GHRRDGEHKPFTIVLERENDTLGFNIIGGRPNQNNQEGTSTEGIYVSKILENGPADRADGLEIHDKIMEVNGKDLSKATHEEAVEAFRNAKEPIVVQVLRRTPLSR
Sequence of Inadl_5, Q8NI35 (Q8NI35 673-780): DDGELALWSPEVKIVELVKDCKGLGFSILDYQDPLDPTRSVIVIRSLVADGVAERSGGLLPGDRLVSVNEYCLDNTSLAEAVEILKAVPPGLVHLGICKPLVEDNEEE
Sequence of MAGI2_6, Q86UL8 (Q86UL8 1141-1229): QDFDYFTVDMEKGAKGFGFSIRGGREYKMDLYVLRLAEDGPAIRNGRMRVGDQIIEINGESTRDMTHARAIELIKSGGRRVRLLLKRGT
Sequence of GRID2IP_1, A4D2P6 (A4D2P6 1-87): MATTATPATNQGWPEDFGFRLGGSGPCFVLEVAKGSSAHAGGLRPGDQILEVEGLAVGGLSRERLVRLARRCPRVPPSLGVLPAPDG

B1: CGN, Q9P2M7 (peptide)
chain: TESNLQTSSC
pKd (APBA2_2, Q99767; [1]): below the threshold
pKd (DLG2_3, Q15700; [1]): below the threshold
pKd (DLG4_2, P78352; [1]): below the threshold
pKd (FRMPD1, Q5SYB0; [1]): below the threshold
pKd (FRMPD3, Q5JV73; [1]): below the threshold
pKd (FRMPD4, Q14CM0; [1]): below the threshold
pKd (GRID2IP_1, A4D2P6; [1]): below the threshold
pKd (GRID2IP_2, A4D2P6; [1]): 3.8
pKd (GRIP1_4, Q9Y3R0; [1]): below the threshold
pKd (GRIP1_7, Q9Y3R0; [1]): below the threshold
pKd (IL16_1, Q14005; [1]): below the threshold
pKd (Inadl_5, Q8NI35; [1]): below the threshold
pKd (LIN7A, O14910; [1]): below the threshold
pKd (LIN7B, Q9HAP6; [1]): below the threshold
pKd (LNX1_1, Q8TBB1; [1]): 3.47
pKd (LNX1_3, Q8TBB1; [1]): below the threshold
pKd (MAGI2_3, Q86UL8; [1]): below the threshold
pKd (MAGI2_4, Q86UL8; [1]): 3.53
pKd (MAGI2_6, Q86UL8; [1]): below the threshold
pKd (MAST1, Q9Y2H9; [1]): below the threshold
pKd (PCLO, Q9Y6V0; [1]): below the threshold
pKd (PDZD7_3, Q9H5P4; [1]): below the threshold
pKd (PDZRN4_1, Q6ZMN7; [1]): below the threshold
pKd (PTPN13_1, Q12923; [1]): below the threshold
pKd (SCRIB_1, Q14160; [1]): below the threshold
pKd (TIAM2, Q8IVF5; [1]): below the threshold
pKd (TJP1_2, Q07157; [1]): below the threshold

B2: TIAM1, Q13009 (peptide)
chain: APSRKLNTEI
pKd (APBA2_2, Q99767; [1]): below the threshold
pKd (DLG2_3, Q15700; [1]): 3.66
pKd (DLG4_2, P78352; [1]): 3.88
pKd (FRMPD1, Q5SYB0; [1]): below the threshold
pKd (FRMPD3, Q5JV73; [1]): below the threshold
pKd (FRMPD4, Q14CM0; [1]): below the threshold
pKd (GRID2IP_1, A4D2P6; [1]): below the threshold
pKd (GRID2IP_2, A4D2P6; [1]): below the threshold
pKd (GRIP1_4, Q9Y3R0; [1]): below the threshold
pKd (GRIP1_7, Q9Y3R0; [1]): below the threshold
pKd (IL16_1, Q14005; [1]): below the threshold
pKd (Inadl_5, Q8NI35; [1]): below the threshold
pKd (LIN7A, O14910; [1]): below the threshold
pKd (LIN7B, Q9HAP6; [1]): below the threshold
pKd (LNX1_1, Q8TBB1; [1]): below the threshold
pKd (LNX1_3, Q8TBB1; [1]): below the threshold
pKd (MAGI2_3, Q86UL8; [1]): below the threshold
pKd (MAGI2_4, Q86UL8; [1]): below the threshold
pKd (MAGI2_6, Q86UL8; [1]): below the threshold
pKd (MAST1, Q9Y2H9; [1]): below the threshold
pKd (PCLO, Q9Y6V0; [1]): below the threshold
pKd (PDZD7_3, Q9H5P4; [1]): 4.08
pKd (PDZRN4_1, Q6ZMN7; [1]): below the threshold
pKd (PTPN13_1, Q12923; [1]): below the threshold
pKd (SCRIB_1, Q14160; [1]): below the threshold
pKd (TIAM2, Q8IVF5; [1]): below the threshold
pKd (TJP1_2, Q07157; [1]): below the threshold

B3: HTR2A, P28223 (peptide)
chain: DGVNEKVSCV
pKd (APBA2_2, Q99767; [2]): below the threshold
pKd (DLG2_3, Q15700; [2]): 3.8
pKd (DLG4_2, P78352; [2]): 4.74
pKd (FRMPD1, Q5SYB0; [2]): below the threshold
pKd (FRMPD3, Q5JV73; [2]): below the threshold
pKd (FRMPD4, Q14CM0; [2]): below the threshold
pKd (GRID2IP_1, A4D2P6; [2]): below the threshold
pKd (GRID2IP_2, A4D2P6; [2]): 4.54
pKd (GRIP1_4, Q9Y3R0; [2]): below the threshold
pKd (GRIP1_7, Q9Y3R0; [2]): below the threshold
pKd (IL16_1, Q14005; [2]): 4.72
pKd (Inadl_5, Q8NI35; [2]): below the threshold
pKd (LIN7A, O14910; [2]): 3.51
pKd (LIN7B, Q9HAP6; [2]): 3.79
pKd (LNX1_1, Q8TBB1; [2]): 4.48
pKd (LNX1_3, Q8TBB1; [2]): below the threshold
pKd (MAGI2_3, Q86UL8; [2]): 4.72
pKd (MAGI2_4, Q86UL8; [2]): 3.72
pKd (MAGI2_6, Q86UL8; [2]): 4.47
pKd (MAST1, Q9Y2H9; [2]): 3.65
pKd (PCLO, Q9Y6V0; [2]): below the threshold
pKd (PDZD7_3, Q9H5P4; [2]): 4.72
pKd (PDZRN4_1, Q6ZMN7; [2]): below the threshold
pKd (PTPN13_1, Q12923; [2]): below the threshold
pKd (SCRIB_1, Q14160; [2]): below the threshold
pKd (TIAM2, Q8IVF5; [2]): 4.01
pKd (TJP1_2, Q07157; [2]): below the threshold

B4: CLDN18, P56856 (peptide)
chain: QSYPSKHDYV
pKd (APBA2_2, Q99767; [2]): 3.62
pKd (DLG2_3, Q15700; [2]): below the threshold
pKd (DLG4_2, P78352; [2]): 3.56
pKd (FRMPD1, Q5SYB0; [2]): below the threshold
pKd (FRMPD3, Q5JV73; [2]): below the threshold
pKd (FRMPD4, Q14CM0; [2]): 3.57
pKd (GRID2IP_1, A4D2P6; [2]): below the threshold
pKd (GRID2IP_2, A4D2P6; [2]): below the threshold
pKd (GRIP1_4, Q9Y3R0; [2]): below the threshold
pKd (GRIP1_7, Q9Y3R0; [2]): below the threshold
pKd (IL16_1, Q14005; [2]): below the threshold
pKd (Inadl_5, Q8NI35; [2]): 3.57
pKd (LIN7A, O14910; [2]): below the threshold
pKd (LIN7B, Q9HAP6; [2]): below the threshold
pKd (LNX1_1, Q8TBB1; [2]): 3.73
pKd (LNX1_3, Q8TBB1; [2]): 3.74
pKd (MAGI2_3, Q86UL8; [2]): 3.62
pKd (MAGI2_4, Q86UL8; [2]): 3.68
pKd (MAGI2_6, Q86UL8; [2]): 3.82
pKd (MAST1, Q9Y2H9; [2]): 4
pKd (PCLO, Q9Y6V0; [2]): below the threshold
pKd (PDZD7_3, Q9H5P4; [2]): 4.08
pKd (PDZRN4_1, Q6ZMN7; [2]): below the threshold
pKd (PTPN13_1, Q12923; [2]): below the threshold
pKd (SCRIB_1, Q14160; [2]): below the threshold
pKd (TIAM2, Q8IVF5; [2]): below the threshold
pKd (TJP1_2, Q07157; [2]): 3.61

B5: SRC, P12931 (peptide)
chain: EPQYQPGENL
pKd (APBA2_2, Q99767; [2]): below the threshold
pKd (DLG2_3, Q15700; [2]): below the threshold
pKd (DLG4_2, P78352; [2]): below the threshold
pKd (FRMPD1, Q5SYB0; [2]): below the threshold
pKd (FRMPD3, Q5JV73; [2]): below the threshold
pKd (FRMPD4, Q14CM0; [2]): 4.12
pKd (GRID2IP_1, A4D2P6; [2]): below the threshold
pKd (GRID2IP_2, A4D2P6; [2]): below the threshold
pKd (GRIP1_4, Q9Y3R0; [2]): below the threshold
pKd (GRIP1_7, Q9Y3R0; [2]): below the threshold
pKd (IL16_1, Q14005; [2]): below the threshold
pKd (Inadl_5, Q8NI35; [2]): below the threshold
pKd (LIN7A, O14910; [2]): below the threshold
pKd (LIN7B, Q9HAP6; [2]): below the threshold
pKd (LNX1_1, Q8TBB1; [2]): below the threshold
pKd (LNX1_3, Q8TBB1; [2]): below the threshold
pKd (MAGI2_3, Q86UL8; [2]): below the threshold
pKd (MAGI2_4, Q86UL8; [2]): below the threshold
pKd (MAGI2_6, Q86UL8; [2]): 3.84
pKd (MAST1, Q9Y2H9; [2]): 4.18
pKd (PCLO, Q9Y6V0; [2]): below the threshold
pKd (PDZD7_3, Q9H5P4; [2]): below the threshold
pKd (PDZRN4_1, Q6ZMN7; [2]): 3.52
pKd (PTPN13_1, Q12923; [2]): below the threshold
pKd (SCRIB_1, Q14160; [2]): 3.49
pKd (TIAM2, Q8IVF5; [2]): below the threshold
pKd (TJP1_2, Q07157; [2]): below the threshold
